Experimental data taken from patent US20260209386A1 (MYTHIC THERAPEUTICS, published 2026).
Changes are numbered by the printed parent chain.

B1: MYT11117 (antibody, V domains shown)
VH: EVQLVESGGGLVQPGGSLRLSCTASGFSLSTYAMSWVRQAPGKGLEWVGMIYINHNTYYASWAKGRFTISRDTSKNTVYLQMNSLRAEDTAVYFCARDIGISYYIGVSLWGQGTLVTVSS
VL: EIVMTQSPSTLSASVGDRVIITCQASQSIGTRLSWYQQKPGKAPKLLIYGASKLATGVPSRFSGSGSGAEFTLTISSLQPDDFATYYCLGEYSYTTTDGIAFGQGTKLTVL
notes: MYT9412 HC variant
B2: MYT11137 (antibody, V domains shown)
VH: B1 VH with H55D, I105H
VL: B1 VL
notes: MYT9412 HC variant
B3: MYT11172 (antibody, V domains shown)
VH: B1 VH with H55D
VL: B1 VL with D98H
notes: MYT9412 LC variant
B4: MYT11150 (antibody, V domains shown)
VH: B1 VH with H55D
VL: B1 VL with I29H
notes: MYT9412 LC variant
B5: MYT11144 (antibody, V domains shown)
VH: B1 VH with H55D, D98A
VL: B1 VL
notes: MYT9412 HC alanine variant
B6: MYT11146 (antibody, V domains shown)
VH: B1 VH with H55D
VL: B1 VL with A25H
notes: MYT9412 LC variant
B7: MYT11136 (antibody, V domains shown)
VH: B1 VH with H55D, Y104H
VL: B1 VL
notes: MYT9412 HC variant
B8: MYT11105 (antibody, V domains shown)
VH: B1 VH with L29H, H55D
VL: B1 VL
notes: MYT9412 HC variant
B9: MYT11134 (antibody, V domains shown)
VH: B1 VH with H55D, S102H
VL: B1 VL
notes: MYT9412 HC variant
B10: MYT11120 (antibody, V domains shown)
VH: B1 VH with H55D, Y58H
VL: B1 VL
notes: MYT9412 HC variant
B11: MYT11115 (antibody, V domains shown)
VH: B1 VH with I53H, H55D
VL: B1 VL
notes: MYT9412 HC variant
B12: MYT11107 (antibody, V domains shown)
VH: B1 VH with T31H, H55D
VL: B1 VL
notes: MYT9412 HC variant
B13: MYT11103 (antibody, V domains shown)
VH: B1 VH with F27H, H55D
VL: B1 VL
notes: MYT9412 HC variant
B14: MYT11163 (antibody, V domains shown)
VH: B1 VH with H55D
VL: B1 VL with L89H
notes: MYT9412 LC variant
B15: MYT11166 (antibody, V domains shown)
VH: B1 VH with H55D
VL: B1 VL with Y92H
notes: MYT9412 LC variant
B16: MYT11106 (antibody, V domains shown)
VH: B1 VH with S30H, H55D
VL: B1 VL
notes: MYT9412 HC variant
B17: MYT11151 (antibody, V domains shown)
VH: B1 VH with H55D
VL: B1 VL with G30H
notes: MYT9412 LC variant
B18: MYT11108 (antibody, V domains shown)
VH: B1 VH with Y32H, H55D
VL: B1 VL
notes: MYT9412 HC variant
B19: MYT11152 (antibody, V domains shown)
VH: B1 VH with H55D
VL: B1 VL with T31H
notes: MYT9412 LC variant
B20: MYT11178 (antibody, V domains shown)
VH: B1 VH with H55D
VL: B1 VL with G99A
notes: MYT9412 LC alanine variant
B21: MYT11177 (antibody, V domains shown)
VH: B1 VH with H55D
VL: B1 VL with D98A
notes: MYT9412 LC alanine variant
B22: MYT11153 (antibody, V domains shown)
VH: B1 VH with H55D
VL: B1 VL with R32H
notes: MYT9412 LC variant
B23: MYT10996 (antibody, V domains shown)
VH: EVQLVESGGGLVQPGGSLRLSCTASGFSLSSYAMGWVRQAPGKGLEWVGFINAGGNTYYANWAKGRFTISRDTSKNTVYLQMNSLRAEDTAVYFCARRYSRASGWYDLWGQGTLVTVSS
VL: EIVMTQSPSTLSASVGDRVIITCQASQHISSYLAWYQQKPGKAPKLLIYAASTLASGVPSRFSGSGSGAEFTLTISSLQPDDFATYYCQSYSYSSGIDYGDVFGQGTKLTVL
notes: MYT9359 LC variant; captured on anti-human Fc sensor
B24: MYT11008 (antibody, V domains shown)
VH: B23 VH
VL: B23 VL with H28S, A55H
notes: as for B23
B25: MYT11020 (antibody, V domains shown)
VH: B23 VH
VL: B23 VL with H28S, Y99H
notes: as for B23
B26: MYT11016 (antibody, V domains shown)
VH: B23 VH
VL: B23 VL with H28S, S95H
notes: as for B23
B27: MYT11019 (antibody, V domains shown)
VH: B23 VH
VL: B23 VL with H28S, D98H
notes: as for B23
B28: MYT11007 (antibody, V domains shown)
VH: B23 VH
VL: B23 VL with H28S, L54H
notes: as for B23
B29: MYT11009 (antibody, V domains shown)
VH: B23 VH
VL: B23 VL with H28S, S56H
notes: as for B23
B30: MYT11015 (antibody, V domains shown)
VH: B23 VH
VL: B23 VL with H28S, S94H
notes: as for B23

Biological target: T1, Human PTK7 Protein, His Tag, Acro Biosystems (human, UniProt Q13308 31-704)
T1 construct: Bought recombinant protein; also called CCK4; not shown: His tag
T1 sequence: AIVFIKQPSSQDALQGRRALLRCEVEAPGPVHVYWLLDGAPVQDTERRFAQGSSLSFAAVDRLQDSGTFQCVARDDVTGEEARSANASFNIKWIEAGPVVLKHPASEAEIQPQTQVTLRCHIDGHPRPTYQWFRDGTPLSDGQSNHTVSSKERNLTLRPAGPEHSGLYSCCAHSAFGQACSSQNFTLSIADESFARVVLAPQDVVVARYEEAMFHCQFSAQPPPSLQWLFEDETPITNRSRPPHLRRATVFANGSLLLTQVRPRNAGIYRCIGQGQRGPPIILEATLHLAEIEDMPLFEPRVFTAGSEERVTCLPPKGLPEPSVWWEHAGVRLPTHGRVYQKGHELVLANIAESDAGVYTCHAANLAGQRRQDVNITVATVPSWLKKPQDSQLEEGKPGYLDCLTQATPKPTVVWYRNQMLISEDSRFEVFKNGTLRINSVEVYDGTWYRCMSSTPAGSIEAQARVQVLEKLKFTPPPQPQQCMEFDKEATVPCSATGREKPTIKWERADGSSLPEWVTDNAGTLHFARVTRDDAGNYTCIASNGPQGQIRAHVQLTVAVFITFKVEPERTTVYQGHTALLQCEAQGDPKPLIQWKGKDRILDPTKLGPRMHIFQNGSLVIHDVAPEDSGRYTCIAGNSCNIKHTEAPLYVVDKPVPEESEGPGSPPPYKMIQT
Assay: BLI, anti-human Fc capture, 50 nM PTK7; 1 = pH dependent binding relative to parent

Binder | binding result
B1 | binds
B2 | binds
B3 | binds
B4 | binds
B5 | binds
B6 | binds
B7 | binds
B8 | binds
B9 | binds
B10 | binds
B11 | binds
B12 | binds
B13 | binds
B14 | binds
B15 | binds
B16 | binds
B17 | binds
B18 | binds
B19 | binds
B20 | binds
B21 | binds
B22 | binds

Biological target: T2, Human PTK7 Protein, His Tag (Acro Biosystems) (human, UniProt Q13308 31-704)
T2 construct: Bought His-tagged recombinant human PTK7; also called CCK4; Tyrosine-protein kinase-like 7
T2 sequence: T1 sequence
Assay: BLI (Octet), antibody on anti-human Fc sensor, 50 nM PTK7; 2 = substantially similar binding

Binder | binding result
B23 | binds
B24 | binds
B25 | binds
B26 | binds
B27 | binds
B28 | binds
B29 | binds
B30 | binds
